In PMC12285236, “Xylanolytic metabolism is regulated by coordination of transcription factors XynR and XylR in extremely thermophilic Caldicellulosiruptorales”:

Key:
[1] = molecular target: XynR (Anaerocellum (f. Caldicellulosiruptor) bescii) (UniProt B9MPD1); assay: fluorescence polarization; conditions: 20 mM Tris-HCl, 100 mM NaCl, 0.02% Tween 20, pH 7.4; FP: 5 nM probe, 30 nM-3 uM protein, 22 C; BLI: 100 nM DNA immobilized on streptavidin sensors
XylR [2] = molecular target: T1, XylR (Anaerocellum (f. Caldicellulosiruptor) …, UniProt Q44406 1-399); assay: fluorescence polarization; Hill coefficient <1; 20 mM Tris-HCl, 100 mM NaCl, 0.02% Tween 20, pH 7.4; FP: 5 nM probe, 30 nM-3 uM protein, 22 C; BLI: 100 nM DNA immobilized on streptavidin sensors; conditions: protein: recombinant; tags: C-terminal 6xHis; chain copies: 2; label: 5' 6-FAM on strand 1; blunt
T1 sequence: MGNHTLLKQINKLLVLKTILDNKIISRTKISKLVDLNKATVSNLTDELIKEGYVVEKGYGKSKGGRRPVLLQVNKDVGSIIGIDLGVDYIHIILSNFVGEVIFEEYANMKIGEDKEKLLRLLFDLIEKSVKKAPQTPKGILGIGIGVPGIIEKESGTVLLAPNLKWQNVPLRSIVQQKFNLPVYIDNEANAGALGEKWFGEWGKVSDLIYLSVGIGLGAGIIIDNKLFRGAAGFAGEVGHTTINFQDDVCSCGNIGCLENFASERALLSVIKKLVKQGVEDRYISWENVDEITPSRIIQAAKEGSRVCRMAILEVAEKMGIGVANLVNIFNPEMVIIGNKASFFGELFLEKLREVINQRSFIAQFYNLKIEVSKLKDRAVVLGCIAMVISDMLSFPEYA

XylR [3] = molecular target: T1, XylR; assay: BLI; 20 mM Tris-HCl, 100 mM NaCl, 0.02% Tween 20, pH 7.4; FP: 5 nM probe, 30 nM-3 uM protein, 22 C; BLI: 100 nM DNA immobilized on streptavidin sensors; conditions: protein: recombinant; tags: C-terminal 6xHis; chain copies: 2; label: 5' biotin on strand 1; blunt

“ATTTTCATGAAATCGCTTTCCTATCTAA / TTAGATAGGAAAGCGATTTCATGAAAATA [xynMNC FP probe]” showed a Kd [1] of 150 nM.

In the case of “ATTGACTAGTAAACGCTTACGATATATT (double strand) [XDL FP probe]”, the Kd [1] is reported as 161 nM.

“TGAGGTTAGAAAGCGGTTTCAAGCAATT (double strand) [xyl3A FP probe]” gave a Kd [1] of 169 nM.

“TAATAATCGAAATCGCTTACAATTCCTG (double strand) [xynR-xylB FP probe]” gave a Kd [1] of 172 nM.

B1: xynUVW FP probe (dsDNA)
DNA 1: TAAATATATAAATAGTTTGTTTAAGAAATAAACCAAAAGGAGTGATT
DNA 2: AATCACTCCTTTTGGTTTATTTCTTAAACAAACTATTTATATATTTA
Molecule B1 has a Kd (XylR [2]) of 165 nM.

B2: xylA BLI probe (dsDNA)
DNA 1: ATTATAGATATTAGTTTGTTTAATAAACAAACTAAGTACACGTACT
DNA 2: AGTACGTGTACTTAGTTTGTTTATTAAACAAACTAATATCTATAAT
B2: binds (XylR [3]).
